Test results: patent publication US20210246191A1 (BIONTECH, published 2021)
Bridge positions count the residues as written; N and C are the ends. Ends that are not written are not given here.

Columns and labels:
[1] = molecular target: FN-67B89 (recombinant human fibronectin EDB flanked by its surrounding type III domains, C-terminal hexahistidine tag) (human) (UniProt P02751); test: SPR, biotinylated FN-67B89 on streptavidin sensor, 50-4000 nM, 1:1 Langmuir fit
[2] = molecular target: FN-67B89 (recombinant human fibronectin EDB flanked by its surrounding type III domains, C-terminal hexahistidine tag) (human) (UniProt P02751); test: SPR, biotinylated FN-67B89 on streptavidin sensor, 62.5-4000 nM, 1:1 Langmuir fit
[3] = molecular target: FN-67B89 (recombinant human fibronectin EDB flanked by its surrounding type III domains, C-terminal hexahistidine tag) (human) (UniProt P02751); test: SPR single cycle kinetics, biotinylated FN-67B89 on streptavidin chip, 1.25-10 nM, 1:1 Langmuir fit
bovine serum albumin = molecular target: T1, bovine serum albumin (bovine, UniProt P02769 25-607); test: ELISA, 200 nM Trx-miniprotein on coated protein (1 µg/well), duplicates
T1 construct: Control protein coated in ELISA; also called BSA
T1 sequence (P02769 25-607 limits assumed): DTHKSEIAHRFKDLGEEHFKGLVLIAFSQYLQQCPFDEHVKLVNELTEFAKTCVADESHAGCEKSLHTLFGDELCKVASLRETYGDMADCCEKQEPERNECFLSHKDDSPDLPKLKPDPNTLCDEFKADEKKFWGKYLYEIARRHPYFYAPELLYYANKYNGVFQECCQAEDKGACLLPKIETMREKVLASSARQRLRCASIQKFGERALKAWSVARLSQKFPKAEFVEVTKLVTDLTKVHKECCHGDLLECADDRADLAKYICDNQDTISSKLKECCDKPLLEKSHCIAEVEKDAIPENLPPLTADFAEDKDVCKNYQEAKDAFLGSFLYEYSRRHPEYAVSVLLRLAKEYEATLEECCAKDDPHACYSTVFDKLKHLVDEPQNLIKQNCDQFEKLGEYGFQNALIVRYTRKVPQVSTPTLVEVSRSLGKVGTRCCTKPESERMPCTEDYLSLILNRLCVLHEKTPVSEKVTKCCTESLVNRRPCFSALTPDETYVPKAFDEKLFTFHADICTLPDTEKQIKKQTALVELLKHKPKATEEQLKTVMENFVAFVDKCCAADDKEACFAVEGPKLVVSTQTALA
Description: FIG. 5: Extended specificity analysis of Trx-cystine-knot miniprotein clones MCopt 1.0-2/-3 and MCopt 2.0-1/-2/3. […] ELISA was performed in duplicates, error bars represent standard deviation and Trx-MC-Myc-010 served as negative cystine-knot miniprotein control.
(§1) ELISA was used as technique to analyze protein-protein interactions. Cavities of 96-well microtiter plates (Nunc MaxiSorp™, Thermo Fisher Scientific) were coated with 1 μg FN-B, bovine serum albumin (BSA, Eurobio), milk powder, streptavidin (Sigma Aldrich), T7-His-TEV-B (LD BioPharma), FN-B(8-14) (R&D Systems), lysozyme, ovalbumin (GE Healthcare Life Science), aldolase (GE Healthcare Life Science) or 0.6 μg anti-c-myc-antibody (M4439, Sigma) overnight at 4° C. The wells were washed three times with PBS-T (1×PBS with 0.1% (w/v) Tween-20), blocked with 1× Casein buffer (Sigma Aldrich) diluted in PBS for 2 h at RT and washed again as described. […] After three times of washing with PBS-T, binding of the respective variant was detected with a horseradish peroxidase (HRP)-conjugated anti-S-tag antibody (ab18589 or ab19324, Abeam). Enzymatic reaction was measured with TMB as a chromogenic substrate and stopped with 0.2 M HCl after approximately 5 min. The measurement of absorbance at 450 nm was performed using an Infinite M200 PRO Microplate Reader (Tecan).

[4] = molecular target: FN-67B89 (recombinant human fibronectin EDB flanked by its surrounding type III domains, C-terminal hexahistidine tag) (human) (UniProt P02751); test: ELISA titration of Trx-miniprotein on coated protein (1 µg/well), HRP anti-S-tag antibody, duplicates [continued), panel MCopt 1.0-3]
[5] = molecular target: T2, FN-B(8-14) (R&D Systems), EDB with C-terminal domains 8-13 and 1/2 of domain 14 (UniProt P02751 1265-1908); test: ELISA titration of Trx-miniprotein on coated protein (1 µg/well), HRP anti-S-tag antibody, single values [continued), panel MCopt 1.0-3]
T2 construct: domain: EDB with C-terminal domains 8-13 and 1/2 of domain 14; Bought
T2 sequence (P02751 1265-1908 limits assumed): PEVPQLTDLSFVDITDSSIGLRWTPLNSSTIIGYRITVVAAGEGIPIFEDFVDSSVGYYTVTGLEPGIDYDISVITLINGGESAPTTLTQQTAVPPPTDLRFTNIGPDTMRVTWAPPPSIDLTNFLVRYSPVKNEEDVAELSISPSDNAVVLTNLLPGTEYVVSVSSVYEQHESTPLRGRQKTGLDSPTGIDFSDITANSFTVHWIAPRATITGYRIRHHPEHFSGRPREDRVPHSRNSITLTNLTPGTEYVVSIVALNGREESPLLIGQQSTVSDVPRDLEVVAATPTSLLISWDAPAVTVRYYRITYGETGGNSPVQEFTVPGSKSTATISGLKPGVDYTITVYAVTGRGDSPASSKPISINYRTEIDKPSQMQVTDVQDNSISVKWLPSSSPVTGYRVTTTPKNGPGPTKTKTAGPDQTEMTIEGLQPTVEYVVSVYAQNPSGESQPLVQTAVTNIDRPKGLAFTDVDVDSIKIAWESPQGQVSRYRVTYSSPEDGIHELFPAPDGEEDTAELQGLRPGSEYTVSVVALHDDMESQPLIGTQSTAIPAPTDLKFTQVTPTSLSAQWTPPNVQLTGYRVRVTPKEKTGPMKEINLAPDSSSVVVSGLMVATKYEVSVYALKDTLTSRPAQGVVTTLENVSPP
Description: (§2) FIG. 6: Saturation-binding curves of MCopt 1.0-2/-3 and MCopt 2.0-1/-2/-3 EDB binding. […] Binding of Trx-cystine-knot miniproteins was detected with an HRP-conjugated anti-s-tag-antibody. ELISAs were performed in duplicates (single values for FN-B(8-14)).
as §1

[6] = molecular target: T3, FN-B (recombinant human fibronectin EDB as a single domain, C-terminal hexahistidine tag) (human, UniProt P02751 1266-1356, Biotinylated on primary amines only for the phage screening; coated unmodified in the ELISAs); test: ELISA titration of Trx-miniprotein on coated protein (1 µg/well), HRP anti-S-tag antibody, duplicates [continued), panel MCopt 1.0-3]
T3 construct: Made in E. coli (pET-21a); Residue numbers count on isoform 7 of P02751; Biotinylated on primary amines for the phage screening; also called Fibronectin Extra Domain B; single domain FN-B
T3 sequence (P02751 other isoform, or with tags, fused parts or gaps limits assumed): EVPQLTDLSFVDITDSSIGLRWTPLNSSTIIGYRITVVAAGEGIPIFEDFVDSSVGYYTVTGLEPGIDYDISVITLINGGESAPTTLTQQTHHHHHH
Description: as §2, §1

[7] = molecular target: FN-67B89 (recombinant human fibronectin EDB flanked by its surrounding type III domains, C-terminal hexahistidine tag) (human) (UniProt P02751); test: SPR, biotinylated FN-67B89 on streptavidin sensor, 1.25-10 nM, 1:1 Langmuir fit
[8] = molecular target: T4, FN-6789 (recombinant human fibronectin type III domains 6-9 without EDB, C-terminal hexahistidine tag) (human, UniProt P02751-1 1085-1446, limits assumed); test: ELISA, 1.56 to 50 nM Trx-miniprotein on 1 µg coated protein per well, 50 ng HRP anti-S-tag antibody, duplicates
T4 construct: domain: domains 6-9 without EDB; Control protein
T4 sequence (P02751 other isoform, or with tags, fused parts or gaps limits assumed): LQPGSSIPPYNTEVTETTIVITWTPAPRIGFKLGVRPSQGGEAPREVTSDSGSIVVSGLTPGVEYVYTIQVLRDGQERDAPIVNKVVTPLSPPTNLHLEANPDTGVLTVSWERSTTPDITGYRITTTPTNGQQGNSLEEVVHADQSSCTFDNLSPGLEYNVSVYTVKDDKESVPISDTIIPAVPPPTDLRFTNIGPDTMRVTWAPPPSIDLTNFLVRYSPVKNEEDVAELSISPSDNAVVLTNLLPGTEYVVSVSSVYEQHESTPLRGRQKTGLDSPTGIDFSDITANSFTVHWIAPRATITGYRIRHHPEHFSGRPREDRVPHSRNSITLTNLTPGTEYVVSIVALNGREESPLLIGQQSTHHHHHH

[9] = molecular target: T3, FN-B (recombinant human fibronectin EDB …); test: ELISA, Trx fusion 50 to 1.563 nM on coated FN-B, HRP anti-S-tag antibody; relative binding from apparent binding constants against parental MC-FN-010, three assays

B1: MC-FN-010 (tag-free cystine-knot miniprotein) (designed binder)
chain: PMCTQRKNRIRLCRRDSDCTGACICRGNGYCG
modifications: disulfide 13-25; disulfide (positions not given here); not fully specified (bridges)
Kd [1]: 1580 nM | koff [1]: 0.0783 s⁻¹ | kon [1]: 49500 M⁻¹ s⁻¹

B2: MC-FN-016 (tag-free cystine-knot miniprotein) (designed binder)
chain: PMCTQRANRIRLCRRDSDCTGACICRGNGYCG
modifications: disulfide 13-25; disulfide (positions not given here); not fully specified (bridges)
Kd [2]: 1410 nM | koff [2]: 0.187 s⁻¹ | kon [2]: 133000 M⁻¹ s⁻¹

B3: AF680-(MC-FN-010)3 (trimeric MC-FN-010 conjugated with Alexa Fluor 680) (designed binder)
peptide: PMCTQRKNRIRLCRRDSDCTGACICRGNGYCG
modifications: ends and bridges not checked; also: trimer via oxime ligation, Alexa Fluor 680 label
Kd [3]: 0.431 nM | koff [3]: 0.00347 s⁻¹ | kon [3]: 8.04e+06 M⁻¹ s⁻¹

B4: Trx-MC-FN-010 (thioredoxin fusion of cystine-knot miniprotein MC-FN-010) (designed binder)
chain: PMCTQRKNRIRLCRRDSDCTGACICRGNGYCG
modifications: not fully specified; cysteine pairing not given here; also: fused to E. coli thioredoxin with His6-tag, S-tag and thrombin site
notes: also called Trx-MCopt 1.0-3; MCopt 1.0-3; not shown: E. coli thioredoxin-A, fusion partner from vector pET-32-LibEx; H6-tag, s-tag and thrombin cleavage site of pET-32-LibEx
binding result (bovine serum albumin): no binding (tested: 200 nM) | EC50 (read off the curve) [4]: 10 nM | EC50 (read off the curve) [5]: ~10 nM | EC50 (read off the curve) [6]: ~4 nM

B5: DOTA-(MC-FN-016)3 (unlabeled trimeric probe) (designed binder)
peptide: PMCTQRANRIRLCRRDSDCTGACICRGNGYCG
modifications: ends and bridges not checked; also: trimer, DOTA on trimer, site not given here
Kd [7]: 0.624 nM | koff [7]: 0.00226 s⁻¹ | kon [7]: 3.73e+06 M⁻¹ s⁻¹

B6: AF680-(MC-FN-016)3 (trimeric MC-FN-016 conjugated with Alexa Fluor 680) (designed binder)
peptide: PMCTQRANRIRLCRRDSDCTGACICRGNGYCG
modifications: ends and bridges not checked; also: trimer via oxime ligation, Alexa Fluor 680 label
Kd [3]: 0.902 nM | koff [3]: 0.00231 s⁻¹ | kon [3]: 2.56e+06 M⁻¹ s⁻¹

B7: Trx-MC-FN-016 (thioredoxin fusion of cystine-knot miniprotein MC-FN-016) (designed binder)
chain: PMCTQRANRIRLCRRDSDCTGACICRGNGYCG
modifications: not fully specified (N-terminus, bridges); cysteine pairing not given here; also: N-terminal thioredoxin fusion carrier (Trx, H6-tag, S-tag, thrombin site), no letters given
notes: not shown: E. coli thioredoxin-A, fusion partner from vector pET-32-LibEx; H6-tag, s-tag and thrombin cleavage site of pET-32-LibEx
binding result [8]: no binding (tested: 50 nM)

B8: Trx-MC-FN-019 (designed binder, not shown: large carriers; small tags and cut ends)
chain: PMCTQRKNRARLCRRDSDCTGACICRGNGYCG
modifications: disulfide 13-25, 19-31, 3-23; also: N-terminal thioredoxin fusion carrier (Trx, H6-tag, S-tag, thrombin site), no letters given
notes: alanine scan variant of MC-FN-010
binding result [9]: no binding (tested: 50 nM)

B9: Trx-MC-FN-0111 (designed binder, not shown: large carriers; small tags and cut ends)
chain: PMCTQRKNRIRACRRDSDCTGACICRGNGYCG
modifications: disulfide 13-25, 19-31, 3-23; also: N-terminal thioredoxin fusion carrier (Trx, H6-tag, S-tag, thrombin site), no letters given
notes: as for B8
binding result [9]: no binding (tested: 50 nM)

B10: Trx-MC-FN-0110 (designed binder, not shown: large carriers; small tags and cut ends)
chain: PMCTQRKNRIALCRRDSDCTGACICRGNGYCG
modifications: disulfide 13-25, 19-31, 3-23; also: N-terminal thioredoxin fusion carrier (Trx, H6-tag, S-tag, thrombin site), no letters given
notes: as for B8
binding result [9]: no binding (tested: 50 nM)

B11: Trx-MC-FN-018 (designed binder, not shown: large carriers; small tags and cut ends)
chain: PMCTQRKNAIRLCRRDSDCTGACICRGNGYCG
modifications: disulfide 13-25, 19-31, 3-23; also: N-terminal thioredoxin fusion carrier (Trx, H6-tag, S-tag, thrombin site), no letters given
notes: as for B8
binding result [9]: no binding (tested: 50 nM)

B12: Trx-MC-FN-0114 (designed binder)
peptide: PMCTQRKNRIRLCRRDSDCTGACICAGNGYCG
modifications: disulfide 13-25, 19-31, 3-23; also: N-terminal thioredoxin fusion carrier (Trx, H6-tag, S-tag, thrombin site), no letters given
notes: alanine scan variant of MC-FN-010; not shown: N-terminal carrier from vector pET-32-LibEx (E. coli thioredoxin-A, H6-tag, S-tag, thrombin site and their linkers)
binding result [9]: no binding (tested: 50 nM)
